According to US6861254:

Biological target: IgG agarose beads (Sigma)
Experiment: pull-down with IgG agarose beads; recovered HS^act conversion activity

HS^act conversion activity extracted: 7000 units
recovery of initial HS^act conversion activity: 10%
Substance: Protein A tagged mouse r3-OST-1 (from UniProt O35310 27-311)
